The text below walks through data of US20230121197A1, “ANTIBODIES SPECIFICALLY BINDING THE CARBOXYMETHYLATED CATALYTIC SUBUNIT OF PROTEIN PHOSPHATASE 2A” (Medizinische Universität Wien, priority 2020, published 2023).

Assay [1] addresses PP2Ac C-terminal peptide L309, ac-…-OH (unmodified) (human). Briefly: ELISA, peptide coated at 2 µg/ml, antibody 1 µg/ml. On the technique in general: An ELISA detects its analyte on a solid surface through an enzyme-linked reagent.
Assay [2] concerns the target PP2Ac C-terminal peptide meL309, ac-…-CH3 (α-carboxymethylated) (human). In words: ELISA, peptide coated at 2 µg/ml, antibody 1 µg/ml, normalized, N=4.
Assay [3] addresses PP2Ac C-terminal peptide pT304-meL309, ac-HVTRRpTPDYFL-CH3 (human). The assay is described as above.
In assay [4] the target is PP2Ac C-terminal peptide meL309, ac-…-CH3 (α-carboxymethylated) (human). In words: ELISA, peptide coated at 2 µg/ml, antibody 1 µg/ml, normalized, N=3.
The target of assay [5] is PP2Ac C-terminal peptide pY307-meL309, ac-HVTRRTPDpYFL-CH3 (human). The assay is described as above.
The target is the same in assay [6]. In words: ELISA, 4-fold dilution series of coated peptide, normalized, N=3.
In assay [7] the target is PP2Ac C-terminal peptide meL309, ac-…-CH3 (α-carboxymethylated) (human). In words: ELISA, peptide coated at 2 µg/ml, antibody 1 µg/ml, values normalized to L309, N=6.
Assay [8] addresses PP2Ac C-terminal peptide pT304-L309, ac-HVTRRpTPDYFL-OH (human). The assay is described as above.
The target in assay [9] is PP2Ac C-terminal peptide pT304-meL309, ac-HVTRRpTPDYFL-CH3 (human). The assay is described as above.
Assay [10] addresses PP2Ac C-terminal peptide pY307-meL309, ac-HVTRRTPDpYFL-CH3 (human). The assay is described as above.
Assay [11] has as its target PP2Ac peptides L309, Y307F, pY307, meL309 crosslinked to BSA (Homo sapiens, UniProt P67775). In words: Western blot of BSA crosslinked PP2Ac peptides (scFv 7C10-C5). The assay is classed as binding. As to conditions: 100 ng BSA crosslinked peptides. The protocol:
100 ng of BSA crosslinked with peptides (L309: CGEPHVTRRTPDYFL (SEQ ID NO:49), Y307F: CGEPHVTRRTPDFFL (SEQ ID NO.50), pY307: CGEPHVTRRTPDpYFL (SEQ ID NO:51) or meL309: CGEPHVTRRTPDYFL-CH3) (SEQ ID NO:49) was separated by 10% SDS-PAGE and transferred to nitrocellulose membrane (0.2 μm, GE Healthcare). Of note, the Y307F peptide cannot be phosphorylated at position 307 due to the presence of a phenylalanine. The membranes were blocked in 3% non-fatty dry milk (NFDM) in TBS-Tween for 1 h at RT and incubated with single clone hybridoma cell culture supernatant, clone 7C10-C5 diluted 1:100 in 0.5% NFDM in TBS-T (7C10 X63), recombinant single chain variable fragment of antibody 7C10-C5, undiluted (7C10 scFvs), recombinant bivalent single chain variable fragment 7C10-C5, undiluted (7C10 bi-scFvs) or single clone hybridoma cell culture supernatant, clone 1D7 (binding to non-carboxymethylated PP2Ac) 1:100 in 0.5% NFDM in TBS-T o/n at 4° C. After washing 3×5 min in TBS-T, blots incubated with recombinant antibodies were incubated with mouse anti-HA monoclonal antibody 16B12 (recognizing the hemagglutinin (HA) tag on the recombinant antibody), 1:10000 in 0.5% NFDM in TBS-T 2 h at room temperature. After washing 3×5 min in TBS-T, incubation with anti-mouse-HRP coupled secondary antibody for 1 h at RT and 3×10 min washes in TBS-T was performed. […] Signals were detected by exposure of X-ray films. […]
A general note: In western blotting, separated proteins are transferred to a membrane and probed.

Assay [12] addresses T1, C-terminal PP2Ac peptides L309, Y307F, pY307, meL309 (Homo sapiens, UniProt P67775).
T1 construct: coated with C-terminal PP2Ac peptides either free or linked to BSA; BSA (carrier)
In words: ELISA with CGEPHVTRRTPDYFL peptides free or linked to BSA (scFv and recombinant 7C10-C5). As to conditions: for recognition of meL309 versus non-carboxymethylated peptides: peptides free or linked to BSA. The class given is binding. As to the method:
Nunc Medisorp 96-well ELISA flat-bottom plates were coated with C-terminal PP2Ac peptides either free or linked to BSA. Specifically, the peptides were: unmodified L309 (CGEPHVTRRTPDYFL) (SEQ ID NO:49), Y307F (CGEPHVTRRTPDFFL) (SEQ ID NO:50), pY307 (CGEPHVTRRTPDpYFL) (SEQ ID NO:51) or carboxymethylated meL309 (CGEPHVTRRTPDYFL-CH3) (SEQ ID NO:49), on the ELISA plate at 8 μg/ml in TBS (free) or 1 μg/ml in TBS (linked to BSA) at 4° C. overnight. After washing twice with TBS, the wells were incubated with 2% BSA in TBS for 1 h at RT. After washing once with TBS, the wells were incubated with single clone hybridoma cell culture supernatant, clone 7C10-C5 1:50 (7C10 X63), recombinant single chain variable fragment of antibody 7C10-C5, undiluted (7C10 scFvs), or recombinant bivalent single chain variable fragment of antibody 7C10-C5, undiluted (7C10 bi-scFvs). After washing 3× with TBS, wells incubated with recombinant antibodies were incubated with monoclonal antibody 16B12, 1:10000 (recognizing the hemagglutinin tag on the recombinant antibody) in 1% BSA TBS 1 h at room temperature. After washing 3× in TBS, incubation with anti-mouse-HRP coupled secondary antibody for 1 h at RT was performed. Bound antibodies were detected by colorimetric reaction with 3,3′,5,5′-Tetramethylbenzidine as substrate, and absorbance was measured at 450 nm. Values were normalized to meL309 which was arbitrarily set to 1. Average and standard deviation of N=3 experiments are shown.
Nunc Medisorp 96-well ELISA flat-bottom plates were coated with peptides either free or linked to BSA, L309 (CGEPHVTRRTPDYFL) (SEQ ID NO:49) or meL309 (CGEPHVTRRTPDYFL-CH3) (SEQ ID NO:49), on the ELISA plate at 0.5 μg/ml in TBS (free) or […] in TBS (linked to BSA) at 4° C. over night. After washing twice with TBS, the wells were incubated with 2% BSA in TBS for 1 h at RT. After washing once with TBS, the wells were incubated with single clone hybridoma cell culture supernatant, clone 7C10-C5 1:50 (7C10 X63), or recombinant antibody 7C10-C5 undiluted (rec 7C10). After washing 3× with TBS, incubation with anti-mouse-HRP coupled secondary antibody for 1 h at RT was performed. Bound antibodies were detected by colorimetric reaction with 3,3′,5,5′-Tetramethylbenzidine as substrate, and absorbance was measured at 450 nm. Values were normalized to meL309 incubated with 7C10 X63, which was arbitrarily set to 1. Average and standard deviation of N=3 experiments are shown (FIG. 30).

With “rabbit monoclonal antibody E155 (Abcam #ab32104 lot GR17965-24)”, in assay [1], the fold higher ELISA signal intensity than with the α-carboxymethylated counterpart (meL309) is 4.7 to 8.2 fold. The molecule further returned a fold-change of ELISA signal, L309 over meL309 in assay [2] of 4.65 fold. For the same molecule, in assay [3], the fold-change of ELISA signal, L309 over pT304-meL309 came out at 50 fold; the fold-change of ELISA signal, meL309 over pT304-meL309 came out at 10.7 fold; the fold-change of ELISA signal, pT304-L309 over pT304-meL309 was 36.1 fold. Moreover, the fold-change of ELISA signal, L309 over meL309 in [4] worked out at 8.2 fold. For the same molecule, in assay [5], the fold-change of ELISA signal, pY307-L309 over pY307-meL309 amounted to 2.5 fold and the fold-change of ELISA signal, pY307-meL309 over meL309 worked out at 3.36 fold. Further, the EC50 (read off the curve) (in general, the concentration that produces a half-maximal response) in [6] was 0.3 mg/L.
For the molecule “mouse monoclonal antibody 4B7 (SCBT, sc-13601, lot 0716)”, the fold higher ELISA signal intensity than with the α-carboxymethylated counterpart (meL309) in [1] was 8 fold. In addition, the fold-change of ELISA signal, L309 over meL309 in [7] was determined as 8.27 fold. This molecule also showed a fold-change of ELISA signal, L309 over pT304-L309 in assay [8] of 1.75 fold. Also, the fold-change of ELISA signal, pT304-L309 over pT304-meL309 in assay [9] was found to be 7.39 fold. The same molecule registered a fold-change of ELISA signal, pY307-L309 over pY307-meL309 in assay [10] of 8.27 fold.

B1: monovalent scFv 7C10-C5: recombinant monovalent single chain variable fragment of antibody 7C10-C5 (SEQ ID NO:42) (protein)
scFv: MDMRVPAQLLGLLLLWLSGARCDVLMTQTPLSLPVSLGDQASISCRSSQSIVHSNGNTYLEWYLQKPGQSPKLLIYKVSNRFSGVPDRFSGSGSGTDFTLKINRVEAEDLGVYYCFQGSHVPWTFGGGTKLEIKSSGGGGSGGGGGGSSRSSLDVQLQESGPGLVKPSQSLSLTCSVTGYSITSGYYWNWIRQFPGNKLEWMGYISYDGSNNYNPSLKNRISITRDTSKNQFFLKLNSVTTEDTATYYCAGRFAYWGQGTLVTVSAAKTTPPSVTSGQAGQHHHHHHGAYPYDVPDYAS
modifications: recombinant monovalent scFv antibody
For B1, the “recognition of meL309 versus non-carboxymethylated peptides” value in assay [11] is given as “specifically recognized the carboxymethylated meL309 peptide, but none of the non-carboxymethylated peptides”; in assay [12], “specifically recognized the carboxymethylated meL309 peptide, but none of the non-carboxymethylated peptides”.

B2: bivalent scFv 7C10-C5: recombinant bivalent single chain variable fragment of antibody 7C10-C5 (SEQ ID NO:44) (protein)
scFv: MDMRVPAQLLGLLLLWLSGARCDVLMTQTPLSLPVSLGDQASISCRSSQSIVHSNGNTYLEWYLQKPGQSPKLLIYKVSNRFSGVPDRFSGSGSGTDFTLKINRVEAEDLGVYYCFQGSHVPWTFGGGTKLEIKSSGGGGSGGGGGGSSRSSLDVQLQESGPGLVKPSQSLSLTCSVTGYSITSGYYWNWIRQFPGNKLEWMGYISYDGSNNYNPSLKNRISITRDTSKNQFFLKLNSVTTEDTATYYCAGRFAYWGQGTLVTVSAAKTTPPSVGSGSGSGSGSGSGSGSGSGSGSGSGSGSGSDVLMTQTPLSLPVSLGDQASISCRSSQSIVHSNGNTYLEWYLQKPGQSPKLLIYKVSNRFSGVPDRFSGSGSGTDFTLKINRVEAEDLGVYYCFQGSHVPWTFGGGTKLEIKSSGGGGSGGGGGGSSRSSLDVQLQESGPGLVKPSQSLSLTCSVTGYSITSGYYWNWIRQFPGNKLEWMGYISYDGSNNYNPSLKNRISITRDTSKNQFFLKLNSVTTEDTATYYCAGRFAYWGQGTLVTVSAAKTTPPSVTSGQAGQHHHHHHGAYPYDVPDYAS
modifications: recombinant bivalent scFv antibody
For B2, the “recognition of meL309 versus non-carboxymethylated peptides” value in assay [11] is given as “specifically recognized the carboxymethylated meL309 peptide, but none of the non-carboxymethylated peptides”; in assay [12], “specifically recognized the carboxymethylated meL309 peptide, but none of the non-carboxymethylated peptides”. The “binding to meL309 peptide, bivalent versus monovalent scFv” value in [12] is listed as “bound stronger to the meL309 peptide than the monovalent scFv”.
